Laboratory results taken from patent US20180155451A1 (published 2018).

T1: FcγRIIb extracellular domain with C-terminal His tag (human, UniProt P31994 43-217)
T1 construct: extracellular domain; Soluble receptor expressed in FreeStyle293 cells, used as analyte in Biacore; also called FcgRIIb; CD32B; not shown: His tag at the C terminus
T1 sequence (looked up): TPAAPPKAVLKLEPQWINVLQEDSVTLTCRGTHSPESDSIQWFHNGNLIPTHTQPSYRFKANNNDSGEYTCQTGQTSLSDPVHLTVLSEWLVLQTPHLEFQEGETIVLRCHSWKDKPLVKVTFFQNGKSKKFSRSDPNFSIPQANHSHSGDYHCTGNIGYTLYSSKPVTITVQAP

T2: FcγRIIa R (extracellular domain, C-terminal His tag) (human, UniProt P12318 34-217)
T2 construct: extracellular domain; also called FcgRIIa R type; 2aR; not shown: His tag attached to the C terminus
T2 sequence (looked up): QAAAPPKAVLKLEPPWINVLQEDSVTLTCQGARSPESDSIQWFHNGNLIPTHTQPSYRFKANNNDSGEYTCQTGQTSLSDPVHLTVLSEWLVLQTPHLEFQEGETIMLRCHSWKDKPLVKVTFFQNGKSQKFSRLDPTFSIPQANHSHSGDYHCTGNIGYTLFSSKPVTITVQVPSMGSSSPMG

T3: FcγRIIb (extracellular domain, C-terminal His tag) (human, UniProt P31994 43-217)
T3 construct: extracellular domain; also called FcgRIIb; 2b; not shown: His tag attached to the C terminus
T3 sequence (looked up): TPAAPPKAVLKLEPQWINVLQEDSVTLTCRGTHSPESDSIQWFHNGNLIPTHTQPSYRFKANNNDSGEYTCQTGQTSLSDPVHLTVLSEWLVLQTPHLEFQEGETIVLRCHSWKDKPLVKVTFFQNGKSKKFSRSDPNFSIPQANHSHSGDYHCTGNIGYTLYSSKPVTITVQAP


Columns and labels:
[1] = biological target: T1, FcγRIIb extracellular domain with …; experiment: SPR (Biacore), antibody captured via antigen peptide, FcγR as analyte; binding relative to GpH7-A5/GpH7-B3/GpL16-k0 = 100
[2] = biological target: T4, FcγRIa extracellular domain with C-terminal His tag (human, UniProt P12314 16-292); experiment: as above
T4 construct: extracellular domain; Soluble receptor expressed in FreeStyle293 cells, used as analyte in Biacore; also called FcgRI; CD64; not shown: His tag at the C terminus

[3] = biological target: T4, FcγRIa extracellular domain with …; experiment: SPR (Biacore); ratio of He/Con_1a (FcγRIa) to He/Con_2b (FcγRIIb) of the same antibody
[4] = biological target: T2, FcγRIIa R (extracellular domain, …); experiment: ratio of He/Con_2aR to He/Con_2b (FcγRIIb); SPR relative binding
Method: (§1) The heterodimerized antibodies He Abs in which one of the H chains was introduced with an alteration were assayed for their binding activities to each activating FcγR and inhibitory FcγR according to the method described in Example 4. […] The activating FcγRs in FIGS. 26, 27, 28, and 29 are FcγRIa, FcγRIIa (R), FcγRIIa (H), and FcγRIIIa, respectively.
(§2) Analysis of interaction between objective antibody and the FcγR was carried out using Biacore T100 (GE Healthcare). HBS-EP+ (GE Healthcare) was used as the running buffer, and the measurement temperature was set to 25° C. Chips produced by immobilizing the antigen peptide by the amine coupling method to a Series S Sencor Chip CM5 (GE Healthcare), or alternatively, chips produced by allowing preliminarily biotinylated antigen peptides to interact with and immobilize onto a Series S Sensor Chip SA (certified) (GE Healthcare) were used. Antibodies of interest were captured onto an antigen peptide-immobilized chip, and allowed to interact to each FcγR diluted with running buffer. To regenerate and repeatedly use the chip, the antibodies captured on the chip were washed off by reacting 10 mM glycine-HCl, pH 1.5.

[5] = biological target: T3, FcγRIIb (extracellular domain, …); experiment: SPR (Biacore), antibody captured on antigen-peptide chip, FcγR as analyte; relative binding amount
Method: as §1, §2

[6] = biological target: T2, FcγRIIa R (extracellular domain, …); experiment: as above
Method: as §1, §2

T4 sequence (P12314 16-292): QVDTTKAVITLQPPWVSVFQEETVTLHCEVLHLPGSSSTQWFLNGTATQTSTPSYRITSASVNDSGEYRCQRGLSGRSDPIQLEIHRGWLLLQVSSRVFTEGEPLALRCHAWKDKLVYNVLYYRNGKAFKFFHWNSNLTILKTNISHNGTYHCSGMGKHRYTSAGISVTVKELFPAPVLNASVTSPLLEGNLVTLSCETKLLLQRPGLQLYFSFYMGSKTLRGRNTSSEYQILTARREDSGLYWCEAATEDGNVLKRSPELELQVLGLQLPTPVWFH

| He/Con_2b [1] | He/Con_1a [2] | Ia/IIb He_1a/2b [3] | He_2aR/2b (IIaR/IIb) [4] | He/Con_2b [5] | He/Con_2aR [6] | Binder |
| --- | --- | --- | --- | --- | --- | --- |
| 34.9 % of control (GpH7-A5/GpH7-B3/GpL16-k0 = 100) | 89.8 % of control (GpH7-A5/GpH7-B3/GpL16-k0 = 100) | 2.57 | – | – | – | GpH7-A5/GpH7-B3 variant S239_15Y/GpL16-k0 (antibody, human IgG1, kappa, Heterodimerized anti-glypican-3 IgG1; substitution in only one H chain; also called S239Y; He Ab) heavy 1: not shown heavy 2: not shown light: DIVMTQSPLSLPVTPGEPASISCQASESLVHSNRNTYLHWYLQKPGQSPQLLIYKVSNRFSGVPDRFSGSGSGTDFTLKISRVEAEDVGVYYCSQNTHVPPTFGQGTKVEIERTVAAPSVFIFPPSDEQLKSGTASVVCLLNNFYPREAKVQWKVDNALQSGNSQESVTEQDSKDSTYSLSSTLTLSKADYEKHKVYACEVTHQGLSSPVTKSFNRGEC |
| 44.1 % of control (GpH7-A5/GpH7-B3/GpL16-k0 = 100) | 93.8 % of control (GpH7-A5/GpH7-B3/GpL16-k0 = 100) | 2.13 | – | – | – | GpH7-A5/GpH7-B3 variant S239_04F/GpL16-k0 (antibody, human IgG1, kappa, Heterodimerized anti-glypican-3 IgG1; substitution in only one H chain; also called S239F; He Ab) heavy 1: not shown heavy 2: not shown light: DIVMTQSPLSLPVTPGEPASISCQASESLVHSNRNTYLHWYLQKPGQSPQLLIYKVSNRFSGVPDRFSGSGSGTDFTLKISRVEAEDVGVYYCSQNTHVPPTFGQGTKVEIERTVAAPSVFIFPPSDEQLKSGTASVVCLLNNFYPREAKVQWKVDNALQSGNSQESVTEQDSKDSTYSLSSTLTLSKADYEKHKVYACEVTHQGLSSPVTKSFNRGEC |

Continued, binder first:

| Binder | He/Con_2b [1] | He/Con_1a [2] | Ia/IIb He_1a/2b [3] | He_2aR/2b (IIaR/IIb) [4] | He/Con_2b [5] | He/Con_2aR [6] |
| --- | --- | --- | --- | --- | --- | --- |
| GpH7-A5/GpH7-B3 variant P238_18N/GpL16-k0 (antibody, human IgG1, kappa, Heterodimerized anti-glypican-3 IgG1; substitution in only one H chain; also called P238N; He Ab) heavy 1: not shown heavy 2: not shown light: DIVMTQSPLSLPVTPGEPASISCQASESLVHSNRNTYLHWYLQKPGQSPQLLIYKVSNRFSGVPDRFSGSGSGTDFTLKISRVEAEDVGVYYCSQNTHVPPTFGQGTKVEIERTVAAPSVFIFPPSDEQLKSGTASVVCLLNNFYPREAKVQWKVDNALQSGNSQESVTEQDSKDSTYSLSSTLTLSKADYEKHKVYACEVTHQGLSSPVTKSFNRGEC | 73.2 % of control (GpH7-A5/GpH7-B3/GpL16-k0 = 100) | 93.3 % of control (GpH7-A5/GpH7-B3/GpL16-k0 = 100) | 1.27 | – | – | – |
| GpH7-A5/GpH7-B3 variant D265_02A/GpL16-k0 (antibody, human IgG1, kappa, Heterodimerized anti-glypican-3 IgG1; alteration in only one H chain (GpH7-B3 side); also called He Ab) heavy 1: not shown heavy 2: not shown light: DIVMTQSPLSLPVTPGEPASISCQASESLVHSNRNTYLHWYLQKPGQSPQLLIYKVSNRFSGVPDRFSGSGSGTDFTLKISRVEAEDVGVYYCSQNTHVPPTFGQGTKVEIERTVAAPSVFIFPPSDEQLKSGTASVVCLLNNFYPREAKVQWKVDNALQSGNSQESVTEQDSKDSTYSLSSTLTLSKADYEKHKVYACEVTHQGLSSPVTKSFNRGEC | – | – | – | 1.71 | 19.9 % of control (GpH7-A5/GpH7-B3/GpL16-k0 = 100) | 33.9 % of control (GpH7-A5/GpH7-B3/GpL16-k0 = 100) |
| GpH7-A5/GpH7-B3 variant D265_07I/GpL16-k0 (antibody, human IgG1, kappa, Heterodimerized anti-glypican-3 IgG1; alteration in only one H chain (GpH7-B3 side); also called He Ab) heavy 1: not shown heavy 2: not shown light: DIVMTQSPLSLPVTPGEPASISCQASESLVHSNRNTYLHWYLQKPGQSPQLLIYKVSNRFSGVPDRFSGSGSGTDFTLKISRVEAEDVGVYYCSQNTHVPPTFGQGTKVEIERTVAAPSVFIFPPSDEQLKSGTASVVCLLNNFYPREAKVQWKVDNALQSGNSQESVTEQDSKDSTYSLSSTLTLSKADYEKHKVYACEVTHQGLSSPVTKSFNRGEC | – | – | – | 2.57 | 1.3 % of control (GpH7-A5/GpH7-B3/GpL16-k0 = 100) | 3.4 % of control (GpH7-A5/GpH7-B3/GpL16-k0 = 100) |
| GpH7-A5/GpH7-B3 variant D265_01G/GpL16-k0 (antibody, human IgG1, kappa, Heterodimerized anti-glypican-3 IgG1; alteration in only one H chain (GpH7-B3 side); also called He Ab) heavy 1: not shown heavy 2: not shown light: DIVMTQSPLSLPVTPGEPASISCQASESLVHSNRNTYLHWYLQKPGQSPQLLIYKVSNRFSGVPDRFSGSGSGTDFTLKISRVEAEDVGVYYCSQNTHVPPTFGQGTKVEIERTVAAPSVFIFPPSDEQLKSGTASVVCLLNNFYPREAKVQWKVDNALQSGNSQESVTEQDSKDSTYSLSSTLTLSKADYEKHKVYACEVTHQGLSSPVTKSFNRGEC | – | – | – | 1.49 | 16.1 % of control (GpH7-A5/GpH7-B3/GpL16-k0 = 100) | 24.1 % of control (GpH7-A5/GpH7-B3/GpL16-k0 = 100) |
| GpH7-A5/GpH7-B3 variant P238_11K/GpL16-k0 (antibody, human IgG1, kappa, Heterodimerized anti-glypican-3 IgG1; alteration in only one H chain (GpH7-B3 side); also called He Ab) heavy 1: not shown heavy 2: not shown light: DIVMTQSPLSLPVTPGEPASISCQASESLVHSNRNTYLHWYLQKPGQSPQLLIYKVSNRFSGVPDRFSGSGSGTDFTLKISRVEAEDVGVYYCSQNTHVPPTFGQGTKVEIERTVAAPSVFIFPPSDEQLKSGTASVVCLLNNFYPREAKVQWKVDNALQSGNSQESVTEQDSKDSTYSLSSTLTLSKADYEKHKVYACEVTHQGLSSPVTKSFNRGEC | – | – | – | 2.03 | 18.1 % of control (GpH7-A5/GpH7-B3/GpL16-k0 = 100) | 36.9 % of control (GpH7-A5/GpH7-B3/GpL16-k0 = 100) |
